Assay results reported in US20170210824A1 (SALK INSTITUTE FOR BIOLOGICAL STUDIES, published 2017).
Where no end group is shown, it is not given here. [ ]: non-standard residue; d: D form. pY = N[C@@H](Cc1ccc(OP(=O)(O)O)cc1)C(=O)O

Legend:
[1] = target: T1, FLAG-NME1 with 1-pHis, in stably transfected HEK293 cells (UniProt P15531 1-152, limits assumed, 1-phosphohistidine (generated in vivo)); assay: immunoblot of FLAG-NME1 293 cell lysates
T1 construct: not shown: FLAG tag
Description: Immunoblotting with anti-pHis antibodies: In general, immunoblotting with anti-pHis antibodies was performed with modifications to standard procedures to help preserve pHis for detection. Buffers were adjusted to pH 8-9 to stabilize pHis and methods were modified to avoid heating samples. Protein samples were prepared in pH 8.8 sample buffer (5×=10% SDS, 250 mM Tris-HCl, pH 8.8, 0.02% Bromophenol blue, 50% glycerol, 50 mM EDTA, 500 mM DTT) for electrophoresis. Mammalian whole cell lysates were prepared by rinsing 70-100% confluent 10 cm² dishes twice with 5 ml cold TD buffer (TBS −/−, pH 8). Cells were scraped directly into 2× pH 8.8 sample buffer, incubated on ice and a cup horn sonicator was used (3-5×5 sec bursts) to disrupt cells and shear DNA. Lysates were clarified by centrifugation (14,000×g for 5-15 min at 4° C.) and analyzed immediately using freshly prepared Bis-Tris polyacrylamide minigels with a modified, pH 8.8 stacking gel and either 10% or 12.5% resolving gels. Electrophoresis buffer recipes were as follows: Running Buffer: (1×20 L, pH 8.5) 20 g SDS, 60 g Trizma Base, 288 g glycine, dH₂0 to 20 L, Transfer Buffer: (1×4 L, pH 8.5) 56.7 g glycine, 4 g SDS, 12 g Trizma Base, 800 ml MeOH, dH₂0 to 4 L. All electrophoresis steps were performed at 4° C. and samples were resolved at 90-100V for 2-3 hr. […]

[2] = target: T2, FAK pY397 peptide (AVSVSETDDpYAEIIDEEDTYT) (phosphotyrosine at position 10 (pY397)); assay: pTyr peptide dot blot
T2 construct: also called FAK pTyr peptide
T2 peptide: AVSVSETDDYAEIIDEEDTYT

[3] = target: T3, Nck pY105 peptide (CGERLpYDLNMPAYVK); assay: pTyr peptide dot blot
T3 construct: also called pTyr (NCK) peptide; pTyr peptide (Nck pY105)
T3 peptide: CGERL[pY]DLNMPAYVK

[4] = target: T4, Eck (Ephrin A2) pY588 peptide (CLKPLKTpYVD); assay: pTyr peptide dot blot
T4 construct: also called Eck/EphA2 pTyr peptide
T4 peptide: CLKPLKT[pY]VD

[5] = target: T5, Nck Y105 peptide (CGERLYDLNMPAYVK); assay: pTyr peptide dot blot
T5 construct: also called unphosphorylated Nck peptide
T5 peptide: CGERLYDLNMPAYVK

[6] = target: T6, Eck (Ephrin A2) Y588 peptide (CLKPLKTYVD); assay: pTyr peptide dot blot
T6 construct: also called unphosphorylated Eck peptide
T6 peptide: CLKPLKTYVD

T1 sequence (P15531 whole entry): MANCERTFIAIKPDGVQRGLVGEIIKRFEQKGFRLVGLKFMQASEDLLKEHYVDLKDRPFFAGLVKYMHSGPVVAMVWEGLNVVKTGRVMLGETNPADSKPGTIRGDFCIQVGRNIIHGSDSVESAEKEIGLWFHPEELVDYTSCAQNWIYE

binding result [1]: no binding | binding result [2]: no binding | binding result [3]: no binding | binding result [4]: no binding | binding result [5]: no binding | binding result [6]: no binding
B1: 3-pHis mAb SC39-4 (antibody, V domains shown)
VH: ESGGRLVTPGGSLTLTCTVSGFSLSRYNMGWVRQAPGKGLEWIGWIPFRGSLKYATWATGRFTISRTSTTVDLRMTGLTAADTATYFCVRSSDGFDLWGPGTLVTVSS
VL: QFVMTQTPASVEAVVGGTVTIKCQASRDTGDGLIWYQQKPGQPPKRLIYKASTVASGVPSRFKGRGSGTDFTLTISDLECADAATYYCHSNFYNRWTYGNAFGGGTEVVVKG
notes: Rabbit hybridoma monoclonal IgG; also called anti-3-pHis mAb SC39-4; SC39s (subclones of MC39)
